B1: Chfr-M580: chfr protein bearing a substitution of Val580 with Met (protein, UniProt Q96EP1 1-664, looked up, variant V580M)
E3 ubiquitin-protein ligase …: MERPEEGKQSPPPQPWGRLLRLGAEEGEPHVLLRKREWTIGRRRGCDLSFPSNKLVSGDHCRIVVDEKSGQVTLEDTSTSGTVINKLKVVKKQTCPLQTGDVIYLVYRKNEPEHNVAYLYESLSEKQGMTQESFEANKENVFHGTKDTSGAGAGRGADPRVPPSSPATQVCFEEPQPSTSTSDLFPTASASSTEPSPAGRERSSSCGSGGGGISPKGSGPSVASDEVSSFASALPDRKTASFSSLEPQDQEDLEPVKKKMRGDGDLDLNGQLLVAQPRRNAQTVHEDVRAAAGKPDKMEETLTCIICQDLLHDCVSLQPCMHTFCAACYSGWMERSSLCPTCRCPVERICKNHILNNLVEAYLIQHPDKSRSEEDVQSMDARNKITQDMLQPKVRRSFSDEEGSSEDLLELSDVDSESSDISQPYVVCRQCPEYRRQAAQPPHCPAPEGEPGAPQALGDAPSTSVSLTTAVQDYVCPLQGSHALCTCCFQPMPDRRAEREQDPRVAPQQCAVCLQPFCHLYWGCTRTGCYGCLAPFCELNLGDKCLDGVLNNNSYESDILKNYLATRGLTWKNMLTESLMALQRGVFLLSDYRVTGDTVLCYCCGLRSFRELTYQYRQNIPASELPVAVTSRPDCYWGRNCRTQVKAHHAMKFNHICEQTRFKN
B2: GST-Chfr: glutathione S-transferase fused to the N-terminus of full-length Chfr (protein)
chain: MERPEEGKQSPPPQPWGRLLRLGAEEGEPHVLLRKREWTIGRRRGCDLSFPSNKLVSGDHCRIVVDEKSGQVTLEDTSTSGTVINKLKVVKKQTCPLQTGDVIYLVYRKNEPEHNVAYLYESLSEKQGMTQESFEANKENVFHGTKDTSGAGAGRGADPRVPPSSPATQVCFEEPQPSTSTSDLFPTASASSTEPSPAGRERSSSCGSGGGGISPKGSGPSVASDEVSSFASALPDRKTASFSSLEPQDQEDLEPVKKKMRGDGDLDLNGQLLVAQPRRNAQTVHEDVRAAAGKPDKMEETLTCIICQDLLHDCVSLQPCMHTFCAACYSGWMERSSLCPTCRCPVERICKNHILNNLVEAYLIQHPDKSRSEEDVQSMDARNKITQDMLQPKVRRSFSDEEGSSEDLLELSDVDSESSDISQPYVVCRQCPEYRRQAAQPPHCPAPEGEPGAPQALGDAPSTSVSLTTAVQDYVCPLQGSHALCTCCFQPMPDRRAEREQDPRVAPQQCAVCLQPFCHLYWGCTRTGCYGCLAPFCELNLGDKCLDGVLNNNSYESDILKNYLATRGLTWKNMLTESLVALQRGVFLLSDYRVTGDTVLCYCCGLRSFRELTYQYRQNIPASELPVAVTSRPDCYWGRNCRTQVKAHHAMKFNHICEQTRFKN
modifications: left off: a dimerising Fc or GST
B3: Chfr-A325: Chfr mutant that substitutes Cys325 of the ring finger with Ala (protein, UniProt Q96EP1 1-664, looked up, variant C325A)
E3 ubiquitin-protein ligase …: MERPEEGKQSPPPQPWGRLLRLGAEEGEPHVLLRKREWTIGRRRGCDLSFPSNKLVSGDHCRIVVDEKSGQVTLEDTSTSGTVINKLKVVKKQTCPLQTGDVIYLVYRKNEPEHNVAYLYESLSEKQGMTQESFEANKENVFHGTKDTSGAGAGRGADPRVPPSSPATQVCFEEPQPSTSTSDLFPTASASSTEPSPAGRERSSSCGSGGGGISPKGSGPSVASDEVSSFASALPDRKTASFSSLEPQDQEDLEPVKKKMRGDGDLDLNGQLLVAQPRRNAQTVHEDVRAAAGKPDKMEETLTCIICQDLLHDCVSLQPCMHTFAAACYSGWMERSSLCPTCRCPVERICKNHILNNLVEAYLIQHPDKSRSEEDVQSMDARNKITQDMLQPKVRRSFSDEEGSSEDLLELSDVDSESSDISQPYVVCRQCPEYRRQAAQPPHCPAPEGEPGAPQALGDAPSTSVSLTTAVQDYVCPLQGSHALCTCCFQPMPDRRAEREQDPRVAPQQCAVCLQPFCHLYWGCTRTGCYGCLAPFCELNLGDKCLDGVLNNNSYESDILKNYLATRGLTWKNMLTESLVALQRGVFLLSDYRVTGDTVLCYCCGLRSFRELTYQYRQNIPASELPVAVTSRPDCYWGRNCRTQVKAHHAMKFNHICEQTRFKN

Assays:
[1] = test system: DLD1 cells; assay: Mitotic index of transiently-transfected DLD1 cells exposed to mitotic stress; type: cell-based, human; settings: DLD1 cells co-transfected with wild-type Chfr
Experimental: (§1) Stable transfectants were prepared by transfecting DLD1 or U20S cells with 5 μg pSV2-HAchfr or pSV2-HAchfr-M580, or 5 μg pSV2 vector without insert and 1 μg pSV7neo plasmid [Wieczorek et al., supra] using Fugene-6 transfection reagent (Roche). Stably transfected cells were selected with G418. For transient expression, DLD1 or U20S cells were transfected with 5 μg pSV2-HAchfr or pSV2-HAchfrM580 or pSV2 plasmid without insert and 2 μg of a plasmid expressing green fluorescent protein using Fugene-6. SAOS2 cells were transfected as described above, except that the plasmids expressing Chfr were cotransfected with a plasmid expressing green fluorescent protein (GFP).
(§2) Cells were grown on 8-well culture slides coated with human fibronectin (Becton Dickinson) and were examined as either non-synchronized or synchronized cells. […] The slides were sealed with coverslips using Fluoromount-G (Upstate Biotechnology) and visualized with a fluorescence microscope (Leica). […]
About 50% of the cells expressed GFP, but the variable level of expression made it difficult to define a threshold above which a cell would be considered GFP-positive. Thus, to avoid any bias, the mitotic index was calculated for the entire cell population. […]

[2] = test system: DLD1 and U20S cells; assay: Mitotic index of stably transfected DLD1 and U20S cells in response to nocodazole; type: cell-based, human
Experimental: as §1, §2
To determine whether Chfr accounted for the different response, DLD1 and U20S cells were prepared to stably express HA-tagged wild-type Chfr or Chfr with the […] substitution (M580) or just the neo selectable marker. […] Furthermore, the different effects of wild-type Chfr and Chfr-M580 could not be attributed to differences in protein expression, as determined by immunoblotting. […]

[3] = test system: Chfr; assay: Ubiquitin-protein ligase assay in vitro; type: biochemical, human; settings: crude bacterial lysates with E1, E2, ubiquitin and ATP; 20 minutes at 30° C.
Experimental: Recombinant E. coli bacterial cells that have been genetically engineered to express the E1 ubiquitin-activating enzyme and the E2 ubiquitin-conjugating enzyme (either UbchD2 or Ubch8) and a […] comprised of glutathione S-transferase fused to the N-terminus of Chfr were lysed. The lysates were incubated in the presence of ubiquitin and ATP and the reaction allowed to proceed for 20 minutes at 30° C. GST-Chfr was captured on glutathione beads, eluted with SDS sample buffer, and resolved by SDS-PAGE. The SDS gel was immunoblotted with antibodies that recognize ubiquitin. Reactions were performed with full-length Chfr fused to GST and reactions were performed with Chfr lacking amino acid residues 1–280 of SEQ ID NO: 2, which contain the FHA domain.

[4] = test system: DLD1 cells; assay: Mitotic index of unsynchronized DLD1 cells stably expressing Chfr or Chfr-A325, exposed to nocodazole; type: cell-based, human; settings: stably transfected unsynchronized DLD1 cells
Description: To determine whether ubiquitin-protein ligase activity is required for checkpoint function, the Chfr mutant that substitutes Cys325 of the ring finger with Ala was stably-expressed in DLD1 cells. These cells were then exposed to mitotic stress and examined for entry into metaphase. The mitotic index of unsynchronized DLD1 cells exposed to nocodazole is high, indicating the absence of a checkpoint that would delay entry into metaphase in response to mitotic stress.

| Molecule | dominant negative effect on wild-type Chfr [1] | mitotic index in response to nocodazole [2] | ubiquitin-protein ligase activity (ubiquitination of GST-Chfr) [3] | mitotic index after exposure to nocodazole [4] |
| --- | --- | --- | --- | --- |
| B1 | aid not act as a dominant negative mutant | high mitotic index | – | – |
| B2 | – | – | efficient ubiquitination | – |
| B3 | – | – | lacks ubiquitin-protein ligase activity | did not lead to a low mitotic index |
